Legend:
[1] = target: T1, GFRα-1; assay: solid-phase assay, coated RAP-GDNF, serial dilutions of GFRα-1 (FIG. 12)
T1 construct: Bought reagent; construct not described; also called soluble GFRα-1
Experimental: Solid-phase binding assays—Microtiter plates were coated with GDNF or RAP-GDNF in 50 mM sodium carbonate, pH 9.6. The plates were then blocked for 1 hour at room temperature with blocking buffer (Promega) and incubated with serial dilutions of GFRα-1 (0-10 nM) in the presence or the absence of 1 μM RET (2 hours, ambient temperature). Complexes were identified by probing with an anti-GDNF monoclonal antibody (B8, Santa Cruz Biotechriology) and then with anti-mouse […] (Bio-Rad). After adding TMB solution (Bio-Rad), the color development was stopped with HCl and the OD 450 nm was measured using a plate reader. Between steps, the plates were washed three times with DPBS containing 0.1% Tween 20. This method provides a method for quantitating the affinity of RAP-GDNF for GFRα.

[2] = target: T1, GFRα-1; assay: solid phase assay, RAP-GDNF concentration varied, OD 450 nm
[3] = target: T2, LRP1 CR3-5 (human); assay: solid-phase assay, coated CR protein (same value as Table 1)
T2 construct: range 852-973; also called L1 CR3-5; LRP1 CR3-S [sic]
T2 sequence (Q07954 852-973): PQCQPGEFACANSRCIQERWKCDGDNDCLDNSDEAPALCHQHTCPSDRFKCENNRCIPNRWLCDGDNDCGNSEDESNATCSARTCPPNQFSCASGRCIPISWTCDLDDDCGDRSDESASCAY

[4] = target: T3, LRP2 CR89 Y1042W R1088D (human, UniProt P98164 1022-1105); assay: solid-phase assay, coated CR protein
T3 construct: also called WVWD; not shown: N-terminal hexahistidine and S-peptide tag stretch of pET30(+)a
T3 chain: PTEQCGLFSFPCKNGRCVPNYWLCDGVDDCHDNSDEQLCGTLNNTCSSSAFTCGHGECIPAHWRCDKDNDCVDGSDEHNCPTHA
Experimental: (§1) Wells were washed with TBSTC and bound ligands detected with polyclonal anti-RAP (BP41/42, 1:1,000, BioMarin). Excess primary antibody was removed and wells washed before incubation with the secondary antibody, HRP-conjugated goat anti rabbit IgG (Bio-Rad). After washing, TMB substrate solutions (Bio-Rad) were added to detect HRP. Color development was stopped with 1N HCl. Absorption at 450 nm was measured with a microplate spectrophotometer (Molecular Devices). Data were plotted and Kd values derived by non-linear regression with the assumption of single-site binding (GraphPad Prism).
(§2) One premise of this work was that amino acids at A, C, A′ and C′ within the calcium-binding loops of a CR pair were key determinants of binding affinity for RAP and would be similarly important for binding of RAP variants. To test this idea, mutant LRP2 CR89 were prepared in which the native, non-canonical residues at these positions were sequentially substituted with the non-native, canonical residues. As defined above, the A, C, A′, C′ string for LRP2 CR89 is YVWR. Mutants included LRP2 CR89Y1042W (WVWR), LRP2 CR89V1047D (YDWR), LRP2 CR89R1088D (YVWD), LRP2 CR89V1047D R1088D (YDWD), LRP2 CR89 Y1042W V1047D R1088D (WDWD), LRP2 CR89Y1042W V1047D (WDWR), LRP2 CR89Y1042W R1088D (WVWD). Binding to both RAP d3 and MegaRAP1 d3 were measured for each LRP2 CR89 mutant by solid-phase assay. […] The A′ position in LRP2 CR89 is a tryptophan, the canonical residue for wild-type RAP d3 binding, and was not mutated in our studies. […] We did see a small increase in binding of RAP d3 to the WVWD and WDWD combinations at A, C, A′ and C′.

[5] = target: T4, LRP2 CR89 V1047D (human, UniProt P98164 1022-1105); assay: solid-phase assay, coated CR protein
T4 construct: also called YDWR; not shown: N-terminal hexahistidine and S-peptide tag stretch of pET30(+)a
T4 chain: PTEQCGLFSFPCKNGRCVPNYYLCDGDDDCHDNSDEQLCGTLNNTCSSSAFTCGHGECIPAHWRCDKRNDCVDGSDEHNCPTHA
Experimental: as §1, §2

[6] = target: T5, LRP2 CR89 V1047D R1088D (human, UniProt P98164 1022-1105); assay: solid-phase assay, coated CR protein
T5 construct: also called YDWD; not shown: N-terminal hexahistidine and S-peptide tag stretch of pET30(+)a
T5 chain: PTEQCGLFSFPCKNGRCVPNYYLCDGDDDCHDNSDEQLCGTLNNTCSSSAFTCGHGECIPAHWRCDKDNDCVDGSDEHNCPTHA
Experimental: as §1, §2

[7] = target: T2, LRP1 CR3-5; assay: solid-phase assay, coated CR protein
Experimental: as §1
Next, the binding of RAP d3 and MegaRAP1 d3 proteins to LRP1 CR3-5 and LRP2 CR89 was assessed. […] In all cases, 10 mM EGTA prevented binding of both RAP d3 and MegaRAP1 d3 to CR proteins. Since calcium was the only divalent metal ion present in the binding buffer, this observation is consistent with both RAP d3 and MegaRAP1 d3 binding to calcium-loaded CR pairs. […] Therefore, wild-type RAP d3 and MegaRAP1 d3 have inverted binding preferences for these two receptor fragments.

[8] = target: T2, LRP1 CR3-5; assay: solid-phase assay, coated CR protein (FIG. 4)
Experimental: Solid phase binding assays—Purified, refolded CR protein (1 μg) was bound to Nunc Maxisorp™ 96-well plates in TBS pH 8 supplemented with 5 mM CaCl₂ (TBSC) overnight at 4° C. Wells were washed with TBSC and then blocked with TBSC containing 2% bovine serum albumin (BSA). RAP ligands were then incubated with the immobilized receptor at a range of concentrations for 2 hours in the above blocking buffer supplemented with 0.05% Tween-20 at room temperature. Control wells contained no added ligand. As an additional control, to determine whether the absence of calcium affected binding, 10 mM EGTA was included in the incubation medium for some samples. Wells were washed with TBSTC and bound ligands detected with polyclonal anti-RAP (BP41/42, 1:1,000, BioMarin). Excess primary antibody was removed and wells washed before incubation with the secondary antibody, HRP-conjugated goat anti rabbit IgG (Bio-Rad). After washing, TMB substrate solutions (Bio-Rad) were added to detect HRP. Color development was stopped with 1N HCl. Absorption at 450 nm was measured with a microplate spectrophotometer (Molecular Devices). […]
The binding of wild-type RAP d3 to each CR pair or set of overlapping pairs was then measured by solid-phase assay (FIG. 4). […] Binding of RAP d3 to MAT CR12 and CR34, measured in a separate set of experiments, was also undetectable. […]

[9] = target: T6, MegaRAP1 d3 (human, UniProt P30533 235-353); assay: solid-phase assay, coated CR protein
T6 construct: range 201-319 (mature RAP numbering); d3 of the variant selected on LRP2 CR89; also called RAPv2A d3; RAP v2A; not shown: N-terminal hexahistidine and S-peptide tags of pET30(+)a
T6 sequence (looked up): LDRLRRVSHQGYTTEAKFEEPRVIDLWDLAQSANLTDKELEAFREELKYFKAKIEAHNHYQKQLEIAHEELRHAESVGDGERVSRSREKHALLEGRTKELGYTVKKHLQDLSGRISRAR
Experimental: as §1, §2

B1: RAP-GDNF fusion protein (ligand, UniProt P30533 35-353, looked up)
chain: YSREKNQPKPSPKRESGEEFRMEKLNQLWEKAQRLHLPPVRLAELHADLKIQERDELAWKKLKLDGLDEDGEKEARLIRNLNVILAKYGLDGKKDARQVTSNSLSGTQEDGLDDPRLEKLWHKAKTSGKFSGEELDKLWREFLHHKEKVHEYNVLLETLSRTEEIHENVISPSDLSDIKGSVLHSRHTELKEKLRSINQGLDRLRRVSHQGYSTEAEFEEPRVIDLWDLAQSANLTDKELEAFREELKHFEAKIEKHNHYQKQLEIAHEKLRHAESVGDGERVSRSREKHALLEGRTKELGYTVKKHLQDLSGRISRARSPDKQMAVLPRRERNRQAAAANPENSRGKGRRGQRGKNRGCVLTAIHLNVTDLGLGYETKEELIFRYCSGSCDAAETTYDKILKNLSRNRRLVSDKVGQACCRPIAFDDDLSFLDDNLVYHILRKHSAKRCGCI
notes: Secreted from CHO cells as a disulfide-linked homodimer of about 120 kD
Kd [1]: ~5 ng/mL
EC50 (read off the curve) [2]: ~2 ng/mL

B2: RAP d3 (wild-type third domain of the receptor-associated protein) (ligand, human, UniProt P30533 235-353, looked up)
chain: LDRLRRVSHQGYSTEAEFEEPRVIDLWDLAQSANLTDKELEAFREELKHFEAKIEKHNHYQKQLEIAHEKLRHAESVGDGERVSRSREKHALLEGRTKELGYTVKKHLQDLSGRISRAR
notes: range 201-319 (mature RAP numbering); Expressed in E. coli from pET30(+)a; also called wild-type RAP d3; not shown: N-terminal hexahistidine and S-peptide tags of pET30(+)a
Kd [3]: 16 nM
% max bind [4]: 16%
% max bind [5]: 6%
% max bind [6]: 6%
% max binding [7]: 76%
Kd [7]: 16 nM
Kd [8]: 11 nM

B3: LRP2 CR89 R1088D (receptor)
chain: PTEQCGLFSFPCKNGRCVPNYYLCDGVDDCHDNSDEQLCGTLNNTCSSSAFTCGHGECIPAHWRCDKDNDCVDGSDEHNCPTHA
notes: also called YVWD; not shown: N-terminal hexahistidine and S-peptide tag stretch of pET30(+)a
Kd [9]: 78 nM

From patent publication US20090281024A1 (RAPTOR PHARMACEUTICALS, published 2009)
